Tested on: K4 kissing-loop RNA reporter
Test: apparent KD of K4 kissing-loop reporter; higher = weaker reporter binding
Details: Eterna round: R107
Experimental: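 RNA-MaP round R107: designed RNA switches with theophylline, tryptophan, arginine or FMN aptamers are transcribed on-chip within common flanks. They are titrated with a labelled K4 kissing-loop RNA reporter in RNA-MaP buffer (100 mM Tris pH 7.5, 80 mM KCl, 4 mM MgCl2), without ligand or with the indicated ligand. Median apparent KD per design.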

[1] = input ligand: theophylline 20 uM
[2] = input ligand: tryptophan 2.4 mM
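Also: bound reporter read as fluorescence of individual clusters on recovered sequencing chips by microscopy, with normalized cluster intensities fitted with a binding model.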

Row | Sequence | apparent KD of K4 kissing-loop reporter (input ligand: FMN 200 uM) | apparent KD of K4 kissing-loop reporter (input ligand: arginine 13.2 mM) | apparent KD of K4 kissing-loop reporter (input ligand: none) | apparent KD of K4 kissing-loop reporter [1] | apparent KD of K4 kissing-loop reporter [2]
1 | GAGGUGCUGAUGCGGUGGCCGGUGGUCGUGCGAGGACCGGUACGGCCGCCACUCGCAUGAGUGAUGUUCAUGUGUCGUCGUCGUC [whbob_EX_Tryp_A_t3] | 172 nM | 104 nM | 132 nM | 117 nM | 172 nM
2 | GAUAUAUAUAGAGGAUAUAGCAGGUGAUACAAGAAAGUGAGUGAUGUUUAUGUAGAUGAUGAUAUGUUAGAAGGCUAUAUAUAUC [radioactive7-modED1598] | 844 nM | 736 nM | 766 nM | 723 nM | 706 nM
3 | GAUUAAUAAGAGGAUACCAGUACAAAUAAAGUACAUUAAUAGUAGAGUGAUGUUCUAAAGUACCCUUGGCAGCUUAGAGUAAGUU [ExTheophylB.A] | 119 nM | 207 nM | 174 nM | 226 nM | 94.4 nM
4 | GAUUCAGUGAUGUUGGAAGGCGAGCGGGAUACCAGCCAAGACUCAGGCCCUUGGCAGCCCACAUAUCCCAGGUAGAUAGUCGCUC [Same State - Theophylline A (Freestyle 11)] | 271 nM | 265 nM | 254 nM | 293 nM | 270 nM
5 | GCAGUGAUGUUGCACGAGUAGGCUGGAGUACGAGGACCGGUACGGCCGCCACUCGUACGAUAGUCGCUAAUUUAUGGAAUGGUGA [#08 K4 Tryptophan A Same State] | 458 nM | 381 nM | 551 nM | 286 nM | 419 nM
6 | GCAGUGAUGUUGCACGAGUAGGCUGGAGUACGAGGACCGGUACGGCCGCCACUCGUACGGAAGUCGCUAAUUUAUGGAAUGGUGA [#06 K4 Tryptophan A Same State] | 592 nM | 381 nM | 341 nM | 413 nM | 436 nM
7 | GCAUCCAUGUGAGGAUAUCGAGACGAGUGAUGUUCGGGCACCAGACAGGGAGACCUGUCAAUGGCUUGAGAAGGCACAUGGAUGC | 231 nM | 196 nM | 249 nM | 199 nM | 217 nM
8 | GCAUCCUAGUCGGCCGCCACUGACAUGAGUGAUGUUCAUGUUCGUCAGUGAUGUUGACGUUGUUACAGGACCGGGACUAGGAUGC [KL-SSTryp-B8 Brourdwalk4 #Double KL] | 169 nM | 143 nM | 165 nM | 150 nM | 119 nM
9 | GCAUGGGUGCUUGCACAAGUGAUGUUUGGGCGAGGACCGGUACGGCCGCCACUCGUACGUUUAGUUAAAAGACAUCAUGCGAGUC [theeternabot_exclusion_KL_Trp_A_11] | 291 nM | 246 nM | 356 nM | 339 nM | 164 nM
10 | GCCAGAGCGCGAAGGAGCGCCCUGACAGGUUGCUGCCGUGGGCAGUGAUGUUGCUCAGUCCGGCAGGUAGGUCGCGUGCUCUGGC | 222 nM | 165 nM | 193 nM | 196 nM | 174 nM
11 | GCCAGUGAUGUUGGCAUUUCGAGCCAUGAAGGAGCGCACGGAAGUGCAGGUAGGUCGCAUGGUACUUAGGAUAUUACCCUAAGUA [Isterare] | 206 nM | 177 nM | 212 nM | 200 nM | 161 nM
12 | GCCGUAGAUUGAAGGAGCGGUUCAUCAAUUCAAGUCGAGUGAUGUUCGACGAUUCUCAGUAACCAGGUAGGUCGCAAUCUACGGC | 175 nM | 142 nM | 150 nM | 171 nM | 143 nM
13 | GCCUAGCAGGGAAGGAGCGCCAUAAGAAGUAAAGGAGGGAGUUGAGUGAUGUUCAAAAUGUGGCAGGUAGGUCGCCCUGCUAGGC [KL-SSArg B13] | 705 nM | 388 nM | 635 nM | 490 nM | 507 nM
14 | GCGCCGGUCUGCUUUAGAGUGAUGUUCUCCCGAGGACCGGUACGGCCGCCACUCGGCCAACGCUAUUAUCUUUGAUCCGCGGUGC [theeternabot_exclusion_KL_Trp_A_41] | 1300 nM | 840 nM | 1000 nM | 1120 nM | 948 nM
15 | GCGCGGCAGGCGGCCGCCACUCUGACGAGCCACAGUGAUGUUGUGGUCGGAGAAACGUCUUCAUAGAGGACCGGGUUUGUUGUUC [Same State Typtophan A GF 25] | 215 nM | 186 nM | 226 nM | 189 nM | 177 nM
16 | GCGCGUCAUGUCAGCGGAGACACUGUCGAUACCAGCGCCGCAAGGCGCCCUUGGCAGCGACGCGCUGGAGUGAUGUUCCAGCGUG [#2 Exclusion - Theophylline A Attempt #15 (HarryS)] | 171 nM | 154 nM | 148 nM | 143 nM | 159 nM
17 | GCUAAGGAGUGAUGUUCCAAGUGAUGUUAACGAGGACCGGUACGGCCGCCACUCGAUACGGCCGGAAAGUAAGAUAAACUACAGU [Same State - Tryptophan A (Freestyle 4)] | 77.5 nM | 59.8 nM | 77.1 nM | 75.8 nM | 64.7 nM
18 | GCUAAGUGAUGUUUAUGCCGCCGACCGGAUACCAGCUACUAGGCAAGCCCUUGGCAGCCGCUAUGUGACCGAUCAUUAGUUAUGU [theeternabot_exclusion_KL_Theo_A_6] | 857 nM | 734 nM | 913 nM | 790 nM | 682 nM
19 | GCUACCUAGGCAGGAUAUAGACAUUGAGUGAUGUUCGAUGAUUAUCCAUAUUCCCGUCACAUAUGACUAGAAGGGCCUAGGUAGC | 660 nM | 184 nM | 221 nM | 228 nM | 211 nM
20 | GCUAUCUGAGCCCAGUGAUGUUGAGUGCUGAAGGAUAUGCGAUAGAGCAGAAGGUCAAGAACAUUGUUCGAUUAUCAAAACAAGU [theeternabot_exclusion_KL_FMN_A_35] | 264 nM | 264 nM | 272 nM | 356 nM | 328 nM
21 | GCUAUGGUAGGAAGGAGCGCUUACUCGGUCAUAAGAGUGAUGUUCGAGACCGAGUAUUUAUAGCAGGUAGGUCGCCUACUAUAGC [Arginine B K4 6] | 68 nM | 124 nM | 2.37 nM | 199 nM | 352 nM
